The record followed here is patent US20170340735A1 (published 2017).

Positions count from the first letter of the chain named.

To fix the notation:
T1: recombinant monomeric human TIGIT-His (human, UniProt Q495A1 22-141)
T1 construct: also called hTIGIT; not shown: His tag
T1 sequence: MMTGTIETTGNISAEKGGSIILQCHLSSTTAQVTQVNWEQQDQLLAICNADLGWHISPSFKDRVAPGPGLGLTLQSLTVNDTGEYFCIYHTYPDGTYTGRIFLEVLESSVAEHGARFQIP

T2: human TIGIT on the cell surface (human, UniProt Q495A1 22-244)
T2 sequence: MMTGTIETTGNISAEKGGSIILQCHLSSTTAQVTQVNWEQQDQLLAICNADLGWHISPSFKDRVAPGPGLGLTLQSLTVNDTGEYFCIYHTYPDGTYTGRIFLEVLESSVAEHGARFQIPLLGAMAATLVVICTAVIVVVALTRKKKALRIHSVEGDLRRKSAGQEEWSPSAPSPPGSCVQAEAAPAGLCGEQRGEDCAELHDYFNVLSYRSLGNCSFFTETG

T3: human PVRL4-His (human, UniProt Q96NY8 32-349)
T3 construct: also called Nectin-4; not shown: His tag
T3 sequence (looked up): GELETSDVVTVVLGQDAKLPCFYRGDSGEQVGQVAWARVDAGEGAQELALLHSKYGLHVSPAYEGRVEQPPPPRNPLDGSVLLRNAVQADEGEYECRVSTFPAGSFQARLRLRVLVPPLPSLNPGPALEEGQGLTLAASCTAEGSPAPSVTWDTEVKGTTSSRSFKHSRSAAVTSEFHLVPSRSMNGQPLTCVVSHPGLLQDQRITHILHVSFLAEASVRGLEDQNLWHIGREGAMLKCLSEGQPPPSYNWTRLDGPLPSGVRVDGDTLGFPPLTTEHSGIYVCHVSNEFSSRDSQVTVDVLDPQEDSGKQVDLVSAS

B1: MAB15-IgG4 (antibody, V domains shown)
VH: QVQLVQSGAEVKKPGASVKVSCKASGYTFREYYMHWVRQAPGQGLEWMGIINPSIGLTSYARKFQGRVTMTRDTSTSTVYMELSSLRSEDTAVYYCARGGRTTWIGAFDIWGQGTMVTVSS
VL: EIVMTQSPATLSVSPGERATLSCRASQSVSSNLAWYQQKPGQAPRLLIYGASTRATGIPARFSGSGSGTEFTLTISSLQSEDFAVYYCQQYVVWPPLTFGGGTKVEIKR
B2: MAB17-IgG4 (antibody, V domains shown)
VH: B1 VH with R30P, E31A, M34I, I55L, F108L
VL: B1 VL
B3: MAB16-IgG4 (antibody, V domains shown)
VH: B1 VH with F108L
VL: B1 VL
B4: MAB3-IgG4 (antibody, V domains shown)
VH: QLQLQESGPGLVKPSETLSLTCTVSGGSISSTSHYWGWIRQPPGKGLEWIGSIYYSGSTFYNPSLKSRVTISVDTSKNQFSLKLSSVTAADTAVYYCARDANYYGSAWAFDPWGQGTLVTVSS
VL: EIVLTQSPATLSLSPGERATLSCRASQSVSSYLAWYQQKPGQAPRLLIYDASNRATGIPARFSGSGSGTDFTLTISSLEPEDFAVYYCQQHFNLPTFGGGTKVEIKR
B5: MAB4-IgG4 (antibody, V domains shown)
VH: B4 VH with S106G
VL: B4 VL
B6: MAB5-IgG4 (antibody, V domains shown)
VH: B4 VH with S67G
VL: B4 VL
B7: MAB2-IgG4 (antibody, V domains shown)
VH: B4 VH with T32S, S33K, H34Y
VL: B4 VL
B8: MAB1-IgG4 (antibody, V domains shown)
VH: B4 VH with S30T, T32S, H34Y, S58A
VL: B4 VL

T4 sequence (chain, as listed by the source limits assumed): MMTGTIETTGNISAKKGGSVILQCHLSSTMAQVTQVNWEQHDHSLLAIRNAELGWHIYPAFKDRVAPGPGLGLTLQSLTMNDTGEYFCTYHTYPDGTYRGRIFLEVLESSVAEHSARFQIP

The first experiment addresses T1, recombinant monomeric human TIGIT-His. The experiment is described as follows: BLI (ForteBio), IgG on AHQ sensor, 100 nM monomeric antigen, 1:1 model. On the procedure: (§1) Quantitative binding of antibodies to recombinant monomeric human, mouse (SEQ ID NO: 3), cynomolgus monkey TIGIT was measured using biolayer interferometry (BLI) with a FORTEBIO®. […] FORTEBIO affinity measurements were performed by loading IgGs on-line onto AHQ sensors. Sensors were equilibrated off-line in assay buffer for 30 min and then monitored on-line for 60 seconds for baseline establishment. Sensors with loaded IgGs were exposed to a single concentration of antigen (100 nM) for 3 minutes. Afterwards they were transferred to assay buffer for 3 minutes for off-rate measurement. Kinetics were analyzed using the 1:1 binding model.
In the case of B1, the Kd turned out to be 0.526 nM.

With B2, the Kd worked out at 0.429 nM.

Turning to B3, the equilibrium dissociation constant (Kd) turned out to be 0.378 nM.

Take B4: the equilibrium dissociation constant (Kd) was determined as 0.332 nM.

For B5, the Kd stood at 0.246 nM.

For B6, the Kd is 0.196 nM.

With B7, the Kd is 0.457 nM.

Turning to B8, the dissociation constant (Kd) stood at 0.524 nM.

A further experiment addresses T4, recombinant monomeric cynomolgus monkey TIGIT-His (cynomolgus monkey).
T4 construct: also called Cyno TIGIT His; cTIGIT; not shown: His tag
The description is as above. The procedure:
as §1
For the molecule B1, the equilibrium dissociation constant (Kd) turned out to be 79.4 nM.

In the case of B2, the Kd turned out to be 110 nM.

B3: the Kd was determined as 70.4 nM.

With B4, the Kd came to 0.802 nM.

Consider B5, for which the Kd was found to be 0.369 nM.

Turning to B6, the dissociation constant (Kd) came out at 0.898 nM.

Take B7: the dissociation constant (Kd) was 1.57 nM.

B8: the Kd was 2.64 nM.

Another experiment deals with T2, human TIGIT on the cell surface. The experiment in a line: cell-based or functional assay.
For the molecule B1, the “Average EC50, IL-2 production, human TIGIT Jurkat/anti-CD3 HT-1080 co-culture assay” value turned out to be 0.21 nM.

For the molecule B2, the “Average EC50, IL-2 production, human TIGIT Jurkat/anti-CD3 HT-1080 co-culture assay” value was 0.13 nM.

With B3, the “Average EC50, IL-2 production, human TIGIT Jurkat/anti-CD3 HT-1080 co-culture assay” value turned out to be 1.11 nM.

With B4, the “Average EC50, IL-2 production, human TIGIT Jurkat/anti-CD3 HT-1080 co-culture assay” value worked out at 0.33 nM.

Turning to B5, the “Average EC50, IL-2 production, human TIGIT Jurkat/anti-CD3 HT-1080 co-culture assay” value is 0.34 nM.

Take B6: the “Average EC50, IL-2 production, human TIGIT Jurkat/anti-CD3 HT-1080 co-culture assay” value worked out at 0.34 nM.

As for B7, the “Average EC50, IL-2 production, human TIGIT Jurkat/anti-CD3 HT-1080 co-culture assay” value was determined as 0.31 nM.

With B8, the “Average EC50, IL-2 production, human TIGIT Jurkat/anti-CD3 HT-1080 co-culture assay” value came to 0.22 nM.

The target is the same in the next experiment. The experiment in a line: flow cytometry, antibody titrated against labeled PVR-Fc binding to human TIGIT Jurkat cells. On the procedure: (§2) Quantitative ligand blocking studies were conducted by using a cell surface TIGIT binding assay.
B1 gave an IC50 of 2.2 nM.

B2 showed a half-maximal inhibitory concentration (IC50) of 2.6 nM.

Consider B3, for which the IC50 came to 2.1 nM.

On to B4, for which the IC50 was 1.6 nM.

The molecule B5 yielded an IC50 of 1.9 nM.

The molecule B6 came in with a half-inhibitory concentration (IC50) of 1.7 nM.

Molecule B7 came in with an IC50 of 2.3 nM.

Regarding B8, the half-maximal inhibitory concentration (IC50) was 2.2 nM.

The target of a further experiment is T3, human PVRL4-His. The experiment in a line: BLI, antibody on AHC sensor, human PVRL4-His in solution. The procedure:
The BLI analysis was performed at 30° C. using 1× kinetics buffer as assay buffer. AHC sensors were first presoaked in assay buffer for greater than 5 minutes. Antibody (5 μg/mL) was captured on the sensor for 300 seconds. Sensors were then dipped in assay buffer for 120 seconds to establish a baseline before measuring binding to human PVRL4-His protein. Sensors were then dipped into human PVRL4-His (200 nM in assay buffer) for 200 seconds to measure association. Dissociation of PVRL4 was then measured by dipping sensors into assay buffer for 200 seconds. Results were analyzed using Octet® Data Analysis Software Version 8.2.0.7.
As to B1, the binding result is listed as “no binding (tested: 200 nM)”.

As to B2, the binding result is on record as “no binding (tested: 200 nM)”.

Consider B3, for which the binding result is “no binding (tested: 200 nM)”.

Consider B4, for which the binding result is given as “no binding (tested: 200 nM)”.

For B5, the binding result was “no binding (tested: 200 nM)”.

In the case of B6, the binding result is listed as “no binding (tested: 200 nM)”.

On to B7, for which the binding result is listed as “no binding (tested: 200 nM)”.

Take B8: the binding result is “no binding (tested: 200 nM)”.

In the next experiment the target is T2, human TIGIT on the cell surface. The experiment is described as follows: flow cytometry, antibody titrated against labeled PVRL2-Fc binding to human TIGIT Jurkat cells. The procedure: as §2
B1 displayed a 50% inhibitory concentration (IC50) of 1.1 nM.

The molecule B2 showed an IC50 of 1.9 nM.

In turn, B3 came in with an IC50 of 1.3 nM.

With B4, the half-inhibitory concentration (IC50) was 1.2 nM.

B5 displayed a half-inhibitory concentration (IC50) of 1.6 nM.

The molecule B6 gave a half-inhibitory concentration (IC50) of 1.4 nM.

Take B7: the IC50 stood at 1.3 nM.

B8 showed an IC50 of 1.4 nM.

The target of the next experiment is T1, recombinant monomeric human TIGIT-His. The experiment in a line: MSD-SET solution equilibrium titration, monomeric antigen. On the procedure: (§3) See Estep et al., supra, incorporated by reference in its entirety. Briefly, solution equilibrium titrations (SET) were performed in PBS+0.1% IgG-Free BSA (PBSF) with antigen (TIGIT monomer) held constant at 10-100 pM and incubated with 3- to 5-fold serial dilutions of Fab or mAbs starting at 10 pM-10 nM. Antibodies (20 nM in PBS) were coated onto standard bind MSD-ECL plates overnight at 4° C. or at room temperature for 30 min. Plates were then blocked by BSA for 30 min with shaking at 700 rpm, followed by three washes with wash buffer (PBSF+0.05% Tween 20). SET samples were applied and incubated on the plates for 150s with shaking at 700 rpm followed by one wash. Antigen captured on a plate was detected with 250 ng/mL sulfotag-labeled streptavidin in PBSF by incubation on the plate for 3 min. The plates were washed three times with wash buffer and then read on the MSD Sector Imager 2400 instrument using 1× Read Buffer T with surfactant. The percent free antigen was plotted as a function of titrated antibody in Prism and fit to a quadratic equation to extract the KD. To improve throughput, liquid handling robots were used throughout MSD-SET experiments, including SET sample preparation.
Take B1: the dissociation constant (Kd) turned out to be 0.21 nM.

Regarding B2, the Kd is 0.041 nM.

Take B3: the Kd is 0.07 nM.

With B4, the Kd worked out at 0.0081 nM.

Consider B5, for which the dissociation constant (Kd) was determined as 0.005 nM.

On to B6, for which the Kd is 0.0049 nM.

On to B7, for which the Kd turned out to be 0.025 nM.

In the case of B8, the Kd was determined as 0.054 nM.

A further experiment has as its target T4, recombinant monomeric cynomolgus monkey …. Described as above. On the procedure: as §3
As for B4, the dissociation constant (Kd) came to 0.035 nM.

On to B5, for which the Kd came to 0.015 nM.

With B6, the Kd was determined as 0.046 nM.

On to B7, for which the Kd was found to be 0.23 nM.

For B8, the Kd turned out to be 0.32 nM.

The target in the next experiment is T1, recombinant monomeric human TIGIT-His. The experiment is described as follows: BLI (Octet QKe), antibody on AHC sensor, several concentrations of human TIGIT-His, 1:1 global fit, average. On the procedure:
A strategy of capturing anti-TIGIT antibodies on sensors following association/dissociation of monomeric TIGIT proteins was used to avoid avidity effects in the assay. The BLI analysis was performed at 29° C. using 1× kinetics buffer (ForteBio) as assay buffer. Anti-human IgG Fc capture (AHC) biosensors (ForteBio) were first presoaked in assay buffer for over five minutes. Anti-TIGIT antibody (5 μg/mL) was captured on the sensor for 300 seconds. Sensors were then dipped in assay buffer for 120 seconds to establish a baseline before measuring binding to each TIGIT protein. […] Dissociation of TIGIT was measured by dipping the sensors into assay buffer for 600, 1200, or 1800 seconds, depending on the experiment (600 seconds was only used for mouse TIGIT-His). Agitation at all steps was 1000 rpm.
Kinetic parameters were generated with Octet® Data Analysis Software Version 8.2.0.7 using reference subtraction, dissociation based inter-step correction, 1-to-1 binding model, and global fit (Rₘₐₓ unlinked by sensor).
With B1, the dissociation constant Kd came to 0.58 nM, the koff worked out at 0.00066 s⁻¹ and the kon worked out at 1.1e+06 M⁻¹ s⁻¹.

B3: the Kd amounted to 1.1 nM, the koff came out at 0.00035 s⁻¹ and the association rate constant (kon) was 450000 M⁻¹ s⁻¹.

As to B5, the equilibrium dissociation constant (Kd) is 0.081 nM, the koff is 6.3e-05 s⁻¹ and the on-rate constant (kon) amounted to 700000 M⁻¹ s⁻¹.

B6: the Kd amounted to 0.19 nM, the koff was 0.00014 s⁻¹ and the kon came to 770000 M⁻¹ s⁻¹.

B7: the Kd was found to be 0.71 nM, the off-rate (koff) was determined as 0.00023 s⁻¹ and the association rate constant (kon) was found to be 320000 M⁻¹ s⁻¹.
